Measurements taken from patent publication US20240261333A1 (published 2024).

Legend:
Assay in all cases: co-IP, anti-FLAG, lysate of cells with C-FLAG B3GNT2; mass spectrometry
PRRC2A = target: T1, PRRC2A (human, UniProt P48634 1-2157)
T1 construct: also called NP_004629.3 (+1)
Method: (§1) Cells were plated in 10-cm cell culture dishes and grown to 60-80% confluency. For each condition, two biological replicates were harvested for co-IP. Cells were washed with PBS and 4 mL of lysis buffer (20 mM HEPES, 1% Triton X-100, 150 mM NaCl, 1 mM EDTA, and 10% glycerol) containing protease inhibitor cocktail was added. Cells were scraped and lysate was incubated at 4° C. under rotary agitation for 1 h. Lysate was centrifuged at 14,000×g for 10 min at 4° C. Supernatant was transferred to a new tube and an aliquot was taken as the input. […] For Western blots, 10 μg/mL Chicken Anti-FLAG (Aves labs ET-DY100) and IgY control (R&D Systems AB-101-C) antibodies were biotinylated (Thermo Fisher Scientific 90407) and added to the respective conditions. Lysates with antibodies were incubated at 4° C. under rotary agitation overnight. For each mL of lysate, 50 μL of Pierce Protein A/G Magnetic Beads (Mass spectrometry; Thermo Fisher Scientific 88803) or Pierce Streptavidin Magnetic Beads (Western blot; Thermo Fisher Scientific 88817) was washed twice with lysis buffer. Lysates with antibodies were added to the beads and incubated at 4° C. under rotary agitation for 4 h. Beads were washed with lysis buffer 3 times and resuspended in lysis buffer for storage.
(§2) Magnetic beads were resuspended in 100 mM Tris pH 7.8, reduced, alkylated and digested with trypsin at 37° ° C. overnight. This solution was subjected to solid phase extraction to concentrate the peptides and remove unwanted reagents followed by injection onto a Shimadzu HPLC with fraction collector. Eight fractions were collected and after concentration were injected on a Waters NanoAcquity HPLC equipped with a self-packed Aeris 3 μm C18 analytical column 0.075 mm by 20 cm, (Phenomenex). Peptides were eluted using standard reverse-phase gradients. The effluent from the column was analyzed using a Thermo Orbitrap Elite mass spectrometer (nanospray configuration) operated in a data dependent manner for 54 minutes. The resulting fragmentation spectra were correlated against the known database using Proteome Discover 1.4 (Thermo Fisher Scientific).

GGCT = target: T2, GGCT (human, UniProt O75223 1-188)
T2 construct: also called NP_076956.1
T2 sequence (looked up): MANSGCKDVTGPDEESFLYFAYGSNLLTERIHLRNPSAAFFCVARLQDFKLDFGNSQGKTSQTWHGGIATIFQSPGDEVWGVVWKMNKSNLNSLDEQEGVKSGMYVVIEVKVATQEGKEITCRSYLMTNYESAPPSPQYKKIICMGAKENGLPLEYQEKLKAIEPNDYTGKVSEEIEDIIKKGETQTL
Method: as §1, §2

SAMM50 = target: T3, SAMM50 (human, UniProt Q9Y512 1-469)
T3 construct: also called NP_056195.3
T3 sequence (looked up): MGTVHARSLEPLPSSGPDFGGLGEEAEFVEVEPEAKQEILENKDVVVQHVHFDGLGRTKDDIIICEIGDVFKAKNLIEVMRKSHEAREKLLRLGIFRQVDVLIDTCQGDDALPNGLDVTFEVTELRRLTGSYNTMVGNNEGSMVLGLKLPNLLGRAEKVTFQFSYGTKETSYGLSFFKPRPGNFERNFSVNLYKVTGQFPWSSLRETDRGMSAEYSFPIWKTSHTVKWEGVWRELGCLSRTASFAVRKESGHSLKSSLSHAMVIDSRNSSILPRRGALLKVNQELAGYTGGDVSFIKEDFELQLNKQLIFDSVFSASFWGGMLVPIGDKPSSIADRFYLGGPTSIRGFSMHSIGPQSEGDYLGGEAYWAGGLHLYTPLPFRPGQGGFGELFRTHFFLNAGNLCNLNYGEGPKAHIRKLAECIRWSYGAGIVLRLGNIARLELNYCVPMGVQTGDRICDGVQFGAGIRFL
Method: as §1, §2

KRT6B = target: T4, KRT6B (human, UniProt P04259 2-564)
T4 construct: also called NP_00546.2
T4 sequence (looked up): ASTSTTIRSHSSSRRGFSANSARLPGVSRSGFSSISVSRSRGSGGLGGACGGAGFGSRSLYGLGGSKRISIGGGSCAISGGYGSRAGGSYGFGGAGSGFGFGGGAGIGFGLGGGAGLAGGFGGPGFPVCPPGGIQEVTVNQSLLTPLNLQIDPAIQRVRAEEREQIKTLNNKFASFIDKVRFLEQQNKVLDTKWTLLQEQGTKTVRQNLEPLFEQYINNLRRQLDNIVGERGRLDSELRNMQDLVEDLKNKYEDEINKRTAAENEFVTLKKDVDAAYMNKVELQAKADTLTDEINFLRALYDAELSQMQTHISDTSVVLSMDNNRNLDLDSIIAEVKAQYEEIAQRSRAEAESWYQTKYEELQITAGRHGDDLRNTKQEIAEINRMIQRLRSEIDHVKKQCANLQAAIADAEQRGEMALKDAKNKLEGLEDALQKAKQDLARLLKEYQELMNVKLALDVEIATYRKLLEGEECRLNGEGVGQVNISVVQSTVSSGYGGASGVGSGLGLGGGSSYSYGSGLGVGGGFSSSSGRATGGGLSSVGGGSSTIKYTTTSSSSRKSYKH
Method: as §1, §2

CAT = target: T5, CAT (human, UniProt P04040 2-527)
T5 construct: also called NP_001743.1
T5 sequence (looked up): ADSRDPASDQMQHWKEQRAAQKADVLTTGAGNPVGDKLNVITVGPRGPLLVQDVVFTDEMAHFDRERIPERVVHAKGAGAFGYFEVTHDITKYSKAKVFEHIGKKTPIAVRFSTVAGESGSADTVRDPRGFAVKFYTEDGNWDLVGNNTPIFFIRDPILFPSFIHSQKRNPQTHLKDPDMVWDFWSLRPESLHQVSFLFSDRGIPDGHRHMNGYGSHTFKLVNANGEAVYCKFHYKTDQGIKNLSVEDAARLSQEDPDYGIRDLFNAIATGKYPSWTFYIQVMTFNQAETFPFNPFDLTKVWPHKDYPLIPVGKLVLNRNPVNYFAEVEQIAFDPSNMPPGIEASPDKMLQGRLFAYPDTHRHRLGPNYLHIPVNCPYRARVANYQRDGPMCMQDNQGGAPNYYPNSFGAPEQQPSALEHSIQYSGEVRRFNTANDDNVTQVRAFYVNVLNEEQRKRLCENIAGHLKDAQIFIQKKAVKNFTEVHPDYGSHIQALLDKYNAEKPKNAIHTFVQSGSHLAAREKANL
Method: as §1, §2

T1 sequence (P48634 whole entry): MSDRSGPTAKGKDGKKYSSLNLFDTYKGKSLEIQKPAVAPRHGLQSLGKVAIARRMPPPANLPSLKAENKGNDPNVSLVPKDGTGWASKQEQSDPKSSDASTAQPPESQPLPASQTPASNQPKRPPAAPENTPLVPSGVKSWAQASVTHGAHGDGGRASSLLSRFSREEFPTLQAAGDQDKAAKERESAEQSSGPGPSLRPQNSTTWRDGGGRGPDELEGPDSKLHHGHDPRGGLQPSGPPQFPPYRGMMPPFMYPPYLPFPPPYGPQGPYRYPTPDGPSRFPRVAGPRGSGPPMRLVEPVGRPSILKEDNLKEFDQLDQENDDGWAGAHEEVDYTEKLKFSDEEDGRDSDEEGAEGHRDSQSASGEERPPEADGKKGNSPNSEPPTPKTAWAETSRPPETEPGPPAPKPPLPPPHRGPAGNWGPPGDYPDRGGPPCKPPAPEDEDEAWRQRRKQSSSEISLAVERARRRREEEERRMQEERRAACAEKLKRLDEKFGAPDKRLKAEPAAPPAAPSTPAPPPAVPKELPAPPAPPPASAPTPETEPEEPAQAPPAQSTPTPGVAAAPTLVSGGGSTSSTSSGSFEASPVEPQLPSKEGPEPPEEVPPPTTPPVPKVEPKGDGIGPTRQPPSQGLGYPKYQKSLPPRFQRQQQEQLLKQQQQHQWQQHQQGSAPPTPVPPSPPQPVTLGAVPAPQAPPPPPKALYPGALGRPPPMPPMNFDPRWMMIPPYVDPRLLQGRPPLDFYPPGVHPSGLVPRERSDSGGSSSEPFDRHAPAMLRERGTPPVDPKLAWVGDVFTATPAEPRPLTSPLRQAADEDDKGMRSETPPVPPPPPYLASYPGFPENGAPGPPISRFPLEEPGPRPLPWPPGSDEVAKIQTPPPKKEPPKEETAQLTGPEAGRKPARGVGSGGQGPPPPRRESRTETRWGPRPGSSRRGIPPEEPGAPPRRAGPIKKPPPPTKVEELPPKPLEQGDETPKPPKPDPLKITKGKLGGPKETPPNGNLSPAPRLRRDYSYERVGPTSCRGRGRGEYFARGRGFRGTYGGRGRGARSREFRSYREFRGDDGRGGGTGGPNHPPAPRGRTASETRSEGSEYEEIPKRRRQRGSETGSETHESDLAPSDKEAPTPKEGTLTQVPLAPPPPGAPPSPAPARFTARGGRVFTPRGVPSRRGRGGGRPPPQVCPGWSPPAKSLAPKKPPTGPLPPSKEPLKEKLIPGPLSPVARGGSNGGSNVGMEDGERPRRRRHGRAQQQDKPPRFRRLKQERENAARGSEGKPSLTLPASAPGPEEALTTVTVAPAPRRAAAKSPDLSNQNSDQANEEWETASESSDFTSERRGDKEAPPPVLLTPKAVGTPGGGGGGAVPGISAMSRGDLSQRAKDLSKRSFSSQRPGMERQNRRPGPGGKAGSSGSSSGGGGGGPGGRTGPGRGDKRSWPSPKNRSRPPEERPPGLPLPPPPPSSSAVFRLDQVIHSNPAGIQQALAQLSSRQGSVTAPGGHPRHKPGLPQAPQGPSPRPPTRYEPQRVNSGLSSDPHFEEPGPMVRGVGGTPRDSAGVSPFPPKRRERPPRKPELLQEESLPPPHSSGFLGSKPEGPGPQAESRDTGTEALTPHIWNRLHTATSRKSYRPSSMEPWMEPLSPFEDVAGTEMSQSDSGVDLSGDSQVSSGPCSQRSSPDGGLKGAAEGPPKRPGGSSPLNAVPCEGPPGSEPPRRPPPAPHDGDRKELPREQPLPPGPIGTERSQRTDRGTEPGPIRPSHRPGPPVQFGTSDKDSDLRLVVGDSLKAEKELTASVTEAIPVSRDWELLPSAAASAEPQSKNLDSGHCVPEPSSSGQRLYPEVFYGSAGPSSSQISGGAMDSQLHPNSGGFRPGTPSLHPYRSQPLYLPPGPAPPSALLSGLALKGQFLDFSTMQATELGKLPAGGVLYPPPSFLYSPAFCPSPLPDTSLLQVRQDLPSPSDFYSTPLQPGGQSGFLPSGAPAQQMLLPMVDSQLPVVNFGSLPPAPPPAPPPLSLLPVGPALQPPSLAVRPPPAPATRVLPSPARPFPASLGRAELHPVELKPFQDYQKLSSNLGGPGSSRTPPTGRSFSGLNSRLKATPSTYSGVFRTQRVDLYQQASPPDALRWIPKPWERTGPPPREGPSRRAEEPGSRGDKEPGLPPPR

B1: C-terminal FLAG tagged B3GNT2 (enzyme, human, UniProt Q9NY97 1-397, looked up)
chain: MSVGRRRIKLLGILMMANVFIYFIMEVSKSSSQEKNGKGEVIIPKEKFWKISTPPEAYWNREQEKLNRQYNPILSMLTNQTGEAGRLSNISHLNYCEPDLRVTSVVTGFNNLPDRFKDFLLYLRCRNYSLLIDQPDKCAKKPFLLLAIKSLTPHFARRQAIRESWGQESNAGNQTVVRVFLLGQTPPEDNHPDLSDMLKFESEKHQDILMWNYRDTFFNLSLKEVLFLRWVSTSCPDTEFVFKGDDDVFVNTHHILNYLNSLSKTKAKDLFIGDVIHNAGPHRDKKLKYYIPEVVYSGLYPPYAGGGGFLYSGHLALRLYHITDQVHLYPIDDVYTGMCLQKLGLVPEKHKGFRTFDIEEKNKNNICSYVDLMLVHSRKPQEMIDIWSQLQSAHLKC
notes: Overexpressed in cells and pulled down from the lysate with mouse anti-FLAG antibody; also called C-FLAG B3GNT2; C-term flag; not shown: C-terminal FLAG tag
PRRC2A
  co-IP mass spectrometry count: 5
GGCT
  co-IP mass spectrometry count: 0
SAMM50
  co-IP mass spectrometry count: 0
KRT6B
  co-IP mass spectrometry count: 331
CAT
  co-IP mass spectrometry count: 0
